In PMC10324392, “Enabling Peptide Ligation at Aromatic Junction Mimics via Native Chemical Ligation and Palladium-Mediated S-Arylation” one finds binding result and Kd data, which are given here for two molecules.

Data set [1] deals with Max DNA-binding domain (synthetic, S-arylated);Myc DNA-binding domain (synthetic, S-arylated) (;, UniProt P61244;P01106 ;, F43C, then Cys43 S-arylated with Pd-1 to a Phe mimic|Y402C, then Cys402 …). Description: EMSA; equimolar Myc and Max; 1 uM DNA; 0, 4, 8 uM protein; EMSA: 10 mM MES, 150 mM KCl, 1 mM MgCl2, 10% glycerol, room temperature 1 h, 10% TBE gel, pH not given; BLI: 1x PBS, 0.1% BSA, 0.02% Tween-20, streptavidin sensors, temperature not given. The following applies: tags: ;; copies: 1;1; (22 bp, only one strand printed). (A gel shift assay detects complexes by their altered migration in electrophoresis.)
Chain of Max DNA-binding domain (synthetic, S-arylated);Myc DNA-binding domain (synthetic, S-arylated) (P61244 22-102, stated change not applied, chain 1 of 2): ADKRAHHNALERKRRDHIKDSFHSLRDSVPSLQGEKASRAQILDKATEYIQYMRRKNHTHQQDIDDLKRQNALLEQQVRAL
Chain of Max DNA-binding domain (synthetic, S-arylated);Myc DNA-binding domain (synthetic, S-arylated) (P01106 369-449, stated change not applied, chain 2 of 2): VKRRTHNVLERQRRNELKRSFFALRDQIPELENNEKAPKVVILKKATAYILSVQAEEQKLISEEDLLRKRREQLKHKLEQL

Data set [2] addresses Max DNA-binding domain (synthetic, S-arylated) (UniProt P61244, F43C, then Cys43 S-arylated with Pd-1 to a Phe mimic). Description: BLI; EMSA: 10 mM MES, 150 mM KCl, 1 mM MgCl2, 10% glycerol, room temperature 1 h, 10% TBE gel, pH not given; BLI: 1x PBS, 0.1% BSA, 0.02% Tween-20, streptavidin sensors, temperature not given. As to conditions: chain copies: 2; (22 bp, only one strand printed). For orientation: Biolayer interferometry detects binding as a change in optical thickness at a sensor tip.

Chain of Max DNA-binding domain (synthetic, S-arylated) (P61244 22-102 F43C): as the sequence (P61244 22-102, stated change not applied, chain 1 of 2) above, with F22C counted along it

B1: E-box DNA probe (22 bp) (dsDNA)
DNA 1: CCGGCTGACACGTGGTATTAAT
DNA 2: ATTAATACCACGTGTCAGCCGG
As for B1, the binding result in data set [1] is reported as “binds”.

B2: biotinylated E-box DNA probe (BLI) (dsDNA)
DNA 1: CCGGCTGACACGTGGTATTAAT
DNA 2: ATTAATACCACGTGTCAGCCGG
On to B2, for which, in data set [2], binding was characterised by a dissociation constant (Kd) of 14.8 ± 0.2 nM.

As usually defined, the Kd is the constant that tells how readily two partners part at equilibrium. A higher Kd goes with weaker binding.
